Test results as given in a protein production outcome set (Wang et al. 2014).

Assay: label from the status in PepcDB records

| Sequence | protein production |
| --- | --- |
| MEEVYHDEPEKFNHILHLIRDYFNHRDDRARITACMGELMRDHLNLLVRFFDFFPAEASEGLAQLQTIAATSVSPDSTIDDAVSYINTVKEAFHDEPAKYYEFFQLFYDIRYRLIDVAGGITRVEELLKAHKNLLVRLNAFLPPEAQRILHLKIEQRAASDINKRKRVASFIGKLKERFQGDDRHVYESFLEILTMYQEGNKSVNDLYQEVGFLVGTLWLDYTFS | failed |
| MEEWSASEACLFEEALEKYGKDFNDIRQDFLPWKSLTSIIEYYYMWKTTDRYVQQKR | not failed |
| MEFDKSVQNYLIGANFSSGLVLDISKKENYILDRISILEQLSKDKKIIHLGCCDHIPLIQNKIENNTWLHSRLCSNSKRCIGVDINKDGIKYLKNNLGYEDVLCGDIIEEELNAIKEEHWDYMILGEILEHIDNPCLFLSDVQKKYHGIVDRLVITVPNALSYQNMKYTFLNKEYINTDHRYWFTPYTLGKIVTLAGMEVEKFFFCVPFPRDNGVFYALNPKSILFDFICKRYPPTRETLLMVAVV | failed |
| MEFHLPSVPMRKILSYLDAFSLLQIAQVNKRWNTFASTDVLWRKFCLKRWFFYEVVTLELLGTESWKQFFVCRTRQERAKSRAKPEDFTYKEIPVEIGAPRNAYYISGCGLTRDGQGKSVICVVTSMNTISTWDLHKGAVTWVSPVQPSYIKILATLPEMHIAVTVDIESTIKLWDCHNREALATNNMLSSCQSLKAVFTKDGPVVLAGDTSGNLLIFRIPDLHLISRVHVFQYGINELYCSPQKKWVFLSKKHSQILPKVFFMSSLLRTSEFSAPASTILSFPLCQRAFWTPRREDRITLMSIKGSKKITTFVTFDIKLEKEEIGNKIRVKEYAIANFSLKKFEDTLEWMGVSDKNVIVCSTGSSLLIYSITGLHLQTFPYGPGEILRLSVDPLHVIVTFIDGSLELFAWEERSPLLRRCYRLYNKRHMLHRRFVNKTLCDDVSIVRVMTNVPSSSFLMVYTLNNGS | failed |
| MEFNDLGITIKELRIKKNISQSELCHGICSQSQISKIEKGMIYPSSILLYQLSERLGIDPNNIFALTQNKRLKYVENVKYVIKDCLKQKQYKELYEIVKKEKNLNNFQTKDEKQFLMWHEAIAIFMVDKSIKTALDFLNNALKLTLTNSDFLSEREIDIMQTMAIFYAENKEYEKSINIFKRCLTNFNKLDFPRDKEIKLKLMLNLAKCFDFTYQHEEAIKYIDKGIKLAINLNTLYLLGELFYLKGQCLLKMKQHNVEDVIYNWKKALFIFELTEKEYYTKMLPDELIELQNKKHS | failed |
| MEGEAQKKFTTGDKAYVKKDSMMYEIVVGCNRSCPCRDSQCIAQIQQVAEPTVANGTARYFVHYVSWNESFDEWVEELDLYPFNAESQQLMNDLRQQALTEKDTENSVPEQENQLKRKRPSKETEKREEPLDAYSLFNIPGSLKRQLMDEWETVTREKMTLTLPREYTVRRILEIWATTKSKQSDSNKDDSTVQEFVNGIFELFNISLGKMLLYRYERPQHNQIFHENESPPEPIDVYGAEHLLRLFVKLPGLVRHLQVPEEAVLNIAQKSYEMLRFLQKNSRKFFSPQYEPLKSQDDSVQGENEDDMDEE | not failed |
| MEGFLMKKTWIALSLLIAFSASSLLPMQAKEATLPKDERYHLVNTSEKGEYELLNTYDSYTEAEKNFQRLSKKYNNLGITYGDSFLQVEQGVVAFPTNSDCSLNTDYILDETNTNGYLNGCYGGDAAFLEYDSYTNQIKFKISGVVAWSDATALTVYPIEKLPNVSSFIVKDGILYHQLKSSATSPSFSSVLPLSKAPSYLKESTTYYSYDTHYFYEAYDQLIKDERLATHQHAINAKKPYYNYYQYLDHRSTTDYTPKQIQSYFKQNLGFQANITNFYDTDNYVHDILTQSLLYGNSEAFFQYQNQFGANALMMLSLSLNESALGKSYIAYNKNNLFGHAAFDSSAEESASRYQSVAASVYSHALHYLSESYLNPEAFQYYGGYFGNKAGGMNVAYASDPYWGEKSASYFMRMDRDMGYQDENNYQLGIAQGQAVKVYASASKKAKLLYTTEEGYDASFILQKKIKNKSGTWYQVQSDIALTKSKESIQDGSYPFATSIGYVKADDIDVITGAEKAANKSYLPITFDAVDGSFYPNTSSITLFVEKGQMPVILDPIKENALFDGWDITLEPATNALTYKATYKHIKNIEVIEKPQTKYNLGDTLNLKHGKIRVTFEDGSSKEVALNNDMVSGFHNDQSGKQRLTITYGGSTTYYDIEMDNQQEERINDVKKQAAHVIKTYMGKVGLNSEALDELIRLRNQLGQFDMQVLPRDQIRVIDRILQENLEPRYSVIIKDDTYDMQVSGLSIALQGESSFLNNIMPKTLRLDVNNDIPKEEKQFVEKVAKANGMNVASYLAIEGTDDFSTLKLQSQLVYSIQKPKKDIDHRIYSVYYISGKDIYQLPTTQSKNRIVFPNDKLGHYAVVWKHADSITHSKDFQEVNTIKQNGKDYIKVYILLPCIIILLTLALLALILYMRKRKIKPFKA | failed |
| MEGFPVRVRVDVRFRDLDPLGHVNNAVFLSYMELARIRYFQRISPDWLEEGHFVVARMEVDYLRPILLGDEVFVGVRTVGLGRSSLRMEHLVTANGESAAKGLGVLVWLEGGRPAPLPEAIRERIRALEGRPL | not failed |
| MEGIQHPIPRTVEEVFSDFRGRRAGLIKALSTDVQKFYHQCDPEKENLCLYGLPNETWEVNLPVEEVPPELPEPALGINFARDGMQEKDWISLVAVHSDSWLISVAFYFGARFGFGKNERKRLFQMINDLPTIFEVVTGNAKQSKDQSANHNSSRSKSSGGKPRHSESHTKASKMSPPPRKEDESGDEDEDDEQGAVCGACGDNYGGDEFWICCDACEKWFHGKCVKITPAKAEHIKHYKCPSCTTSKKMKA | failed |
| MEGISIYTSDNYTEEMGSGDYDSMKEPCFREENANFNKIFLPTIYSIIFLTGIVGNGLVILVMGYQKKLRSMTDKYRLHLSVADLLFVITLPFWAVDAVANWYFGNFLCKAVHVIYTVNLYSSVLILAFISLDRYLAIVHATNSQRPRKLLAEKVVYVGVWIPALLLTIPDFIFANVSEADDRYICDRFYPNDLWVVVFQFQHIMVGLILPGIVILSCYCIIISKLSHSKGHQKRKALKTTVILILAFFACWLPYYIGISIDSFILLEIIKQGCEFENTVHKWISITEALAFFHCCLNPILYAFLGAKFKTSAQHALTSVSRGSSLKILSKGKRGGHSSVSTESESSSFHSS | not failed |
| MEGLEAYDYHLPPEQIAQEGVEPRDMARLMVVYREGPFRVAHKRVRDLPEFLRPGDVLVFNESKVIPARLLARKPTGGKVEILLVRERSPGLWEALLGPARKAPPGTRLLLLSPKDLAPVPGLQAEVVAVEEDGVRLLRFQGDLVAHLEEVGEVPLPPYIKAKIPMERYQTVYARRPGSVAAPTAGLHFTPELLERLREMGVELRFLTLHVGPGTFRPVKGDPEKHEMHAEPYAIPEEVAEAVNRAKAEGRRVVAVGTTVVRALESAYREGVGVVAGEGETRLFIRPPYTFKVVDALFTNFHLPRSTLLMLVAAFLGRERTLEAYRLAVAEGYRFYSLGDAMLIL | not failed |
| MEGLIPFLYKAIVMYKREGSFSSVLLSDHHSPSNAGYYMRLPGDSSSRFRTSDLRRFGTDRFGMLETTPSSSPSRVSTRNITKRT | failed |
| MEGLQRSTISFRRQGSSGIVFDDRLIAELNKSGNNEQKDESQRDEQPKPMSESSEQVKPIDEKDKLRPIKTGGGAPGGIERSRSNGGGAQRHHRTTGRVSPAVDPPSPRISSCGCCSAFGKNPPGKKVNPRKRPPKRRSR | failed |
| MEGSQQTITSKQLVRMLKDASRGSKGKGSGEMKFCFLIGAGASISSGIPSGAKLAWDWLQQIKEDCDGEDFEDWKIEIKMPDQHIEERVGEFYPEIYEKRFGHAPETGYDYIRGLMEGREPSLGYLILANIMVREKHNVVITTNFDNLLEDAIRTYTKEKPFIAGHEALADYVPKRSDRPIILKLHRDLFLQPFSDQLNTDILQAAWESILGKFLSDYHLIVLGYGGNDGSLMNYLLKLKNRKPIYWCVRNTDKATSKSLWNTLSPKAKRLLKNDGYLVPIDDFDRFMYDCYAALGYKFLEGIEKIEKPKSIHEILKPNYARIESIQTQLRQLSQTEEELSKESFQSIKSFLPDSWMWILKANQEKDIDKKDKIYREGIAKYPQDANLLGDYADFLCDICHD | not failed |
| MEIEFMTNVAVRRPNLNDVDELYLFFRIVITNTYKNEGLSQSLDDIENEINSKKQYLKSDFDSNGEGRYFLLAIDTSNDKIIGTIEIGPASTLINSCTGGVLKNLYEIGTVFILPEYQRKGIGSLLLHTMFLTLLSRGITEYCLDSGYKNAQSIWTKKFGKPSYVLKDYWGESSDHMIWKKSLHDTPIIFEL | failed |
| MEIFFTILIMTLVVSLSGVVTRVMPFQIPLPLMQIAIGALLAWPTFGLHVEFDPELFLVLFIPPLLFADGWKTPTREFLEHGREIFGLALALVVVTVVGIGFLIYWVVPGIPLIPAFALAAVLSPTDAVALSGIVGEGRIPKKIMGILQGEALMNDASGLVSLKFAVAVAMGTMIFTVGGATVEFMKVAIGGILAGFVVSWLYGRSLRFLSRWGGDEPATQIVLLFLLPFASYLIAEHIGVSGILAAVAAGMTITRSGVMRRAPLAMRLRANSTWAMLEFVFNGMVFLLLGLQLPGILETSLMAAEIDPNVEIWMLFTNIILIYAALMLVRFGWLWTMKKFSNRFLKKKPMEFGSWTTREILIASFAGVRGAITLAGVLSIPLLLPDGNVFPARYELVFLAAGVILFSLFVGVVMLPILLQHIEVADHSQQLKEERIARAATAEVAIVAIQKMEERLAADTEENIDNQLLTEVSSRVIGNLRRRADGRNDVESSVQEENLERRFRLAALRSERAELYHLRATREISNETLQKLLHDLDLLEALLIEENQ | failed |
| MEIHYAAKQDKCLVRPVIRDHTGSQSYRSTTSILTDHLRRNHHSHGAIASRDYLSYSWNSQLRRFSSEGDGNNASEDSRFPLNKDKMGKEKSTVGVEHFDSHAQLGVQDQIEWLNNEKRASESRKESPFLNKRERLKNEFLRRIQPWETIQLSWESFPYYVHEHTKDTLVECVSSHIKQKSMTSKYGARLDSSSGRILLQSVPGTELYRERLVRALARDTQVPLLVLDSSVLAPYDFADDYNEESESDDDIAESDQCTSQSEAEEETDGDNDDTSSSETKIEGTDDEERYLEISKEVLKKLGADIEDIEKRMSEQLYGSSEVSEAAAVDQDDKAKRPLKKGSQFVTCALCYLHQMMSV | failed |
| MEIMEFEEAFKEVYEMVKPKYKLFTAGPVACFPEVLEIMKVQMFSHRSKEYRKVHMDTVERLREFLEVEKGEVLLVPSSGTGIMEASIRNGVSKGGKVLVTIIGAFGKRYKEVVESNGRKAVVLEYEPGKAVKPEDLDDALRKNPDVEAVTITYNETSTGVLNPLPELAKVAKEHDKLVFVDAVSAMGGADIKFDKWGLDVVFSSSQKAFGVPPGLAIGAFSERFLEIAEKMPERGWYFDIPLYVKYLKEKESTPSTPPMPQVFGINVALRIIEKMGGKEKWLEMYEKRAKMVREGVREIGLDILAEPGHESPTITAVLTPPGIKGDEVYEAMRKRGFELAKGYGSVKEKTFRIGHMGYMKFEDIQEMLDNLREVINELKKQKGIN | not failed |
| MEISNRLKSISEVMDRCEIAADIGTDHAYLPIYLIKNNLCKRFIASDVNAGPLKKAINNINKYKLEDKIECRLGSGLNVLKLEEVDVVVIAGMGGNLIRDIIEERLDIFKKLKYAVLQPVQNPEILREYLIKRGFNIIEEQLCIDESKYYEIIKVCYDSKIEDKDDVYYEIGDKLIDMKHPLLKEYINYKIRKYDKIYKNISEESLNALSRKNELSIKIRKLKELLSCL | failed |
| MEITTLQIVLIFIVACVSGMGSILDEFQFHRPLVACTLIGAVLGDLKTGIIIGGTLEMIALGWMNIGAAVAPDAALASIISTILVIAGGQGIGAGIALAIPLAAAGQVLTIIVRTITVAFQHAADSAAERGNLTAISWIHVSALLLQAMRIAIPAVIVAVSVGTDTVHALLNSIPDVVTNGLNIAGGMIVVVGYAMVINMMRAGYLMPFFYLGFVTAAFTEFNLVALGVIGIVMAVLYIQLSPKYNKVQGQSVTSGNNGLDNELD | failed |
| MEKAPLLLETVEQAVRILQESPFVAIWNYKVLSVQAGAVALALPAQPQFYRPGGIIQGGCLMTLADTAFWLAAMTELGIDAPIVTLEMKTHFLRAAQADVYCRAEVMKSGRRVTYGTATITDAAGQTLSHHTLTYLAALEHHHHHH | failed |
